Measurements from publication PMC8331139.

What was measured:
[1] = molecular target: PSII core complex of Thalassiosira pseudonana (dimeric core, C2) (Thalassiosira pseudonana (endogenous)) (UniProt A0T0N4); experiment: cryo-EM structure; cryo-electron tomography of unstacked thylakoid membrane vesicles with sub-volume averaging (EMAN2); complexes in situ in the membrane; 578 PSII and 374 PSI sub-volumes; resolution 4.2 nm (PSII) and 3.3 nm (PSI); densities assigned by rigid-body fitting of structures of other species
[2] = molecular target: FCPII-S, trimeric fucoxanthin chlorophyll a/c protein antenna of PSII (Thalassiosira pseudonana (endogenous)); experiment: as above

Substance | stoichiometry N [1] | stoichiometry N [2]
PSII core complex of Thalassiosira pseudonana (dimeric core, C2) (from UniProt A0T0N4 1-38) | 2 | 
FCPII-S, trimeric fucoxanthin chlorophyll a/c protein antenna of PSII (complex) | 2 | 3
